Source: patent publication US12397037B2, “Methods and compositions for immunomodulation” (CHILDREN'S MEDICAL CENTER CORPORATION, priority 2014, dated 2025)

Assays:
U87MG cells = assay: Western blot of PI-3K/Akt-mTOR and MAPK signaling in U87MG cells; assay type: cell-based, human
Procedure: U87MG which express NRP-2 were used for this assay.
To determine the effect of SEMA3F on intracellular signaling responses, levels of phosphokinases in the NRP2-expressing human glioblastoma cell line U87MG were profiled.
Western blotting: Proteins within each sample were separated by SDS-PAGE and transferred to nitrocellulose membranes. The membranes were blocked with 4% skimmed milk in TBS-T (0.1% Tween 20 in tris-buffered saline [TBS]) for 30 minutes, followed by incubation with the primary antibody. After washing with TBS-T, membranes were incubated with the appropriate horseradish peroxidase-conjugated secondary antibody, and immunoreactivity was detected by using ECL detection reagents.

mTORC1 and mTORC2 = assay: Immunoprecipitation of mTOR with raptor and rictor in U87MG cells; assay type: cell-based, human; settings: SEMA3F 640 ng/ml, 30 minutes
Procedure: FIG. 29A depicts U87MG cells treated with SEMA3F (640 ng/ml) for 30 minutes and subjected to immunoprecipitation and Western blot analysis with anti-mTOR, -raptor and -rictor as illustrated. FIG. 29B depicts U87MG cells treated with rapamycin (10 nM) or Torin 1 (10 nM) for 30 minutes, prior to SEMA3F (640 ng/ml) treatment for 60 minutes; lysates were analyzed by Western blot. FIG. 29C depicts bar graphs representing densitometric analysis of the illustrated blot showing the fold change in intensity (mean±SD) relative to the untreated control (*, p <0.01; **, p<0.001 vs. untreated control). FIG. 29D depicts U87MG cells transiently transfected with a pcDNA3.1 empty vector or with constitutively active Akt (2DAkt). Cells were treated with SEMA3F (640 ng/ml) and lysates were analyzed by Western blot. All data are representative of 3 independent experiments.
FIGS. 35A-35B depict analysis of the effect of SEMA3F on mTORC2 activity. […] depicts a Western blot. U87MG cells were transiently transfected with a pcDNA3.1 empty vector or with constitutively active Akt (2DAkt). Cells were treated with SEMA3F (640 ng/ml) and lysates were analyzed by Western blot. FIG. 35B depicts a Western blot. U87MG cells were transiently transfected with a pcDNA3.1 empty vector or with 2DAkt. […]

[1] = U87MG cells, 640 ng/ml time course

B1: SEMA3F: Human recombinant full-length His-Myc-tagged SEMA3F, secreted by transfected 293T cells and purified; class 3 semaphorin, NRP-2 ligand (protein, listed as Homo sapiens)
chain: MLVAGLLLWASLLTGAWPSFPTQDHLPATPRVRLSFKELKATGTAHFFNFLLNTTDYRILLKDEDHDRMYVGSKDYVLSLDLHDINREPLIIHWAASPQRIEECVLSGKDVNGECGNFVRLIQPWNRTHLYVCGTGAYNPMCTYVNRGRRAQATPWTQTQAVRGRGSRATDGALRPMPTAPRQDYIFYLEPERLESGKGKCPYDPKLDTASALINEELYAGVYIDFMGTDAAIFRTLGKQTAMRTDQYNSRWLNDPSFIHAELIPDSAERNDDKLYFFFRERSAEAPQSPAVYARIGRICLNDDGGHCCLVNKWSTFLKARLVCSVPGEDGIETHFDELQDVFVQQTQDVRNPVIYAVFTSSGSVFRGSAVCVYSMADIRMVFNGPFAHKEGPNYQWMPFSGKMPYPRPGTCPGGTFTPSMKSTKDYPDEVINFMRSHPLMYQAVYPLQRRPLVVRTGAPYRLTTIAVDQVDAADGRYEVLFLGTDRGTVQKVIVLPKDDQELEELMLEEVEVFKDPAPVKTMTISSKRQQLYVASAVGVTHLSLHRCQAYGAACADCCLARDPYCAWDGQACSRYTASSKRRSRRQDVRHGNPIRQCRGFNSNANKNAVESVQYGVAGSAAFLECQPRSPQATVKWLFQRDPGDRRREIRAEDRFLRTEQGLLLRALQLSDRGLYSCTATENNFKHVVTRVQLHVLGRDAVHAALFPPLSMSAPPPPGAGPPTPPYQELAQLLAQPEVGLIHQYCQGYWRHVPPSPREAPGAPRSPEPQDQKKPRNRRHHPPDT
modifications: His-Myc tag
notes: Human recombinant full-length His-Myc-tagged SEMA3F, secreted by transfected 293T cells and purified; class 3 semaphorin, NRP-2 ligand
pSGK1 (S422) and pPKC (S657) (U87MG cells; U87MG cells): inhibited
pS6K and pS6 in 2DAkt transfected cells (U87MG cells; U87MG cells transfected with constitutively active Akt (2DAkt), SEMA3F 640 ng/ml): no change in expression
persistence of inhibitory effect (U87MG cells; [1]): greater than 60 minutes
time within which pAkt (T308 and S473), pmTOR, pS6K and pS6 were inhibited (U87MG cells; [1]): 10-20 minutes
pAkt (S473) in 2DAkt transfectants (U87MG cells; U87MG cells, SEMA3F 640 ng/ml): reduced the level of pAkt (S473)
pAkt (T308 and S473) and pS6K (U87MG cells; U87MG cells, SEMA3F 640 ng/ml for 60 minutes vs untreated): reduced levels of pAkt (T308 and S473) and pS6K
inhibition of expression of pAkt (S473) (densitometry) (U87MG cells; U87MG cells, SEMA3F ~640 ng/mL, after 10 min): > 80%
pAkt and pS6K after rapamycin pretreatment (U87MG cells; U87MG cells, rapamycin 30 minutes, then SEMA3F and rapamycin for 60 minutes): reduced levels of both pAkt and pS6K
pAkt, pS6K and pS6 in NRP2 and Plexin A1-siRNA transfected cells (U87MG cells; U87MG cells, siRNA 20 nM, SEMA3F 640 ng/ml): failed to inhibit
concentration at which peak effects were observed (U87MG cells; U87MG cells, signaling): ~600 ng/mL
expression of pERK1/2 (U87MG cells; U87MG cells, ~640 ng/mL): markedly reduced
time of peak effect on pERK1/2 (U87MG cells; U87MG cells, ~640 ng/mL): ≤ 30 mins
pAkt (S473), pAkt (T308), pmTOR and pS6K (U87MG cells; U87MG cells, ~640 ng/mL, by 30 min): most significant reduction
pAkt and pS6K signaling at the lowest concentration (U87MG cells; U87MG, SEMA3F 200 ng/ml, 30 minutes): inhibits pAkt and pS6K signaling
association between mTOR and raptor / rictor (mTORC1 and mTORC2): inhibited the association between mTOR and both raptor and rictor
mTOR/rictor interaction in 2DAkt transfected cells (mTORC1 and mTORC2): inhibited mTOR/rictor interaction
